What was measured:
[1] = target: T1, collagen type I (collagen I coated 96 well-plates, Gibco); assay: ELISA, collagen I coated plate, anti-6xHis-HRP detection
T1 construct: also called collagen type 1

[2] = target: T2, bovine serum albumin (plate blocked with BSA) (bovine, UniProt P02769 25-607); assay: ELISA on a plate blocked with bovine serum albumin, anti-His-HRP detection
T2 construct: Specificity control surface

[3] = target: T1, collagen type I (collagen I coated 96 …); assay: competition ELISA on collagen I; 50 nM biotinylated lumican detected with streptavidin-HRP, rmLAIR1 varied
[4] = target: T1, collagen type I (collagen I coated 96 …); assay: ELISA on collagen I, anti-His-HRP
[5] = target: T3, CRP-XL-biotin (crosslinked collagen related peptide, biotinylated) (O represents hydroxyproline (all O positions); C-terminal amide (NH2); chains crosslinked to lock the helical structure; biotinylated (site not stated)); assay: kinetic dissociation at 37 C on yeast, MFI of bound CRP-XL-biotin during competition with excess CRP-XL, one-phase exponential decay fit
T3 construct: also called CPP-XL-biotin; soluble collagen peptide mimic

[6] = target: collagen type IV (collagen IV coated 96 well-plates, Corning); assay: ELISA, collagen IV coated plate, anti-6xHis-HRP detection
[7] = target: T1, collagen type I (collagen I coated 96 …); assay: ELISA on collagen I coated plate, anti-6xHis-HRP
[8] = target: collagen type IV (collagen IV coated 96 well-plates, Corning); assay: ELISA on collagen IV coated plate, anti-6xHis-HRP
[9] = target: T1, collagen type I (collagen I coated 96 …); assay: ELISA on collagen I after thawing from frozen, with excipients; data not shown

T1 sequence (P02454 152-1207, chain 1 of 2): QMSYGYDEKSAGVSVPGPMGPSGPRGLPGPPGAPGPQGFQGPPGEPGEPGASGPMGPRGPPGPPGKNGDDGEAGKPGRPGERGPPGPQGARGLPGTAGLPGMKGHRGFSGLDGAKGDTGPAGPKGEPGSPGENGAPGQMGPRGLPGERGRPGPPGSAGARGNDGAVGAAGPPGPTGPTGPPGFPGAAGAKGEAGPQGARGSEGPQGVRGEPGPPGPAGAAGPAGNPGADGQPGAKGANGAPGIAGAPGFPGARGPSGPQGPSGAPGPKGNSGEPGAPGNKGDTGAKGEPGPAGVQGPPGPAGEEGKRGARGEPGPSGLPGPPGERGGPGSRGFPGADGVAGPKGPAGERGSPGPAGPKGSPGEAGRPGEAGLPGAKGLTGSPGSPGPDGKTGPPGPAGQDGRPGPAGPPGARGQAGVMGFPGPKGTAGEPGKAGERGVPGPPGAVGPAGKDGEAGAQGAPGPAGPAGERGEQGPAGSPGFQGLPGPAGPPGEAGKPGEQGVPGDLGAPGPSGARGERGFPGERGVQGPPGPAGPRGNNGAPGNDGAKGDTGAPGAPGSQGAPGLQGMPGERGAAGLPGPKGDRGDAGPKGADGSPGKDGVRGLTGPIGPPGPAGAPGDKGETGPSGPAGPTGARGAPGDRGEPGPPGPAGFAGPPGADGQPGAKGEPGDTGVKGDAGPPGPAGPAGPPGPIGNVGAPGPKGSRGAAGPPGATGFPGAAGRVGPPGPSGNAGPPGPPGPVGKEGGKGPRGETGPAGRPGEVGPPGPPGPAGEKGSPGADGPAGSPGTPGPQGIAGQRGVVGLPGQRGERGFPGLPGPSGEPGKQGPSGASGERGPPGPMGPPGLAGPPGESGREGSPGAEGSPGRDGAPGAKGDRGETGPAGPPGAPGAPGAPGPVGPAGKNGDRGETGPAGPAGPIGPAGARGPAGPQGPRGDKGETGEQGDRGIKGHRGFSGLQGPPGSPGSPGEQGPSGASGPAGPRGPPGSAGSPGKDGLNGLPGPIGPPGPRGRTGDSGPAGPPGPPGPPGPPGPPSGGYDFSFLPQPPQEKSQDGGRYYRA
T1 sequence (P02466 86-1125, chain 2 of 2, further chain): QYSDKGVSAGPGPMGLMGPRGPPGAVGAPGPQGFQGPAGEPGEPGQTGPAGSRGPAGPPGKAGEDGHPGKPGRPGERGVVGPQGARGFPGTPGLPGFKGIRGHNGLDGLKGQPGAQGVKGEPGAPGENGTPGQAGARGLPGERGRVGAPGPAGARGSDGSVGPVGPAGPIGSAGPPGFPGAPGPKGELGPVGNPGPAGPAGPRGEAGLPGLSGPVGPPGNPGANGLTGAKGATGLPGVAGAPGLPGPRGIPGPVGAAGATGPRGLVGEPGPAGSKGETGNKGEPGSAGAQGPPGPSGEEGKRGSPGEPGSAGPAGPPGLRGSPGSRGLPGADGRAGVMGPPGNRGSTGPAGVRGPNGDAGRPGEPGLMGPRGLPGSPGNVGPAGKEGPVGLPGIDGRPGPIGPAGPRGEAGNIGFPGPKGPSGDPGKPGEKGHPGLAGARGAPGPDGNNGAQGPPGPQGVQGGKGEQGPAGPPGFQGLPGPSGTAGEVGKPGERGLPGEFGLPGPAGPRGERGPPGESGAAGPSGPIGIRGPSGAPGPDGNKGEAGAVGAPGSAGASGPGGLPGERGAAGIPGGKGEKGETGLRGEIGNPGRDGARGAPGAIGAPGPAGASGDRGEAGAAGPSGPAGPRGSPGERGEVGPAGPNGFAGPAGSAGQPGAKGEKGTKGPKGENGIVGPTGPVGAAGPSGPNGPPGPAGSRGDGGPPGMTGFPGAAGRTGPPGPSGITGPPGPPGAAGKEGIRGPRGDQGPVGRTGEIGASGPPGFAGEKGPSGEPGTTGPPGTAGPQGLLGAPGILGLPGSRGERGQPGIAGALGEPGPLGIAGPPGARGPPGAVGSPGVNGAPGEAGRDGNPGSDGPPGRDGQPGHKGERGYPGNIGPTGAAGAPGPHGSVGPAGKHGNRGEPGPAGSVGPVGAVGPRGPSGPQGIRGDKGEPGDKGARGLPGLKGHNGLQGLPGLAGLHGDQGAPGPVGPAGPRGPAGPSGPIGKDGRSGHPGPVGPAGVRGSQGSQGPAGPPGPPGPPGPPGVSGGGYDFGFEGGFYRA
Chain of collagen type IV (collagen IV coated 96 well-plates, Corning) (P02463 173-1669, chain 1 of 2): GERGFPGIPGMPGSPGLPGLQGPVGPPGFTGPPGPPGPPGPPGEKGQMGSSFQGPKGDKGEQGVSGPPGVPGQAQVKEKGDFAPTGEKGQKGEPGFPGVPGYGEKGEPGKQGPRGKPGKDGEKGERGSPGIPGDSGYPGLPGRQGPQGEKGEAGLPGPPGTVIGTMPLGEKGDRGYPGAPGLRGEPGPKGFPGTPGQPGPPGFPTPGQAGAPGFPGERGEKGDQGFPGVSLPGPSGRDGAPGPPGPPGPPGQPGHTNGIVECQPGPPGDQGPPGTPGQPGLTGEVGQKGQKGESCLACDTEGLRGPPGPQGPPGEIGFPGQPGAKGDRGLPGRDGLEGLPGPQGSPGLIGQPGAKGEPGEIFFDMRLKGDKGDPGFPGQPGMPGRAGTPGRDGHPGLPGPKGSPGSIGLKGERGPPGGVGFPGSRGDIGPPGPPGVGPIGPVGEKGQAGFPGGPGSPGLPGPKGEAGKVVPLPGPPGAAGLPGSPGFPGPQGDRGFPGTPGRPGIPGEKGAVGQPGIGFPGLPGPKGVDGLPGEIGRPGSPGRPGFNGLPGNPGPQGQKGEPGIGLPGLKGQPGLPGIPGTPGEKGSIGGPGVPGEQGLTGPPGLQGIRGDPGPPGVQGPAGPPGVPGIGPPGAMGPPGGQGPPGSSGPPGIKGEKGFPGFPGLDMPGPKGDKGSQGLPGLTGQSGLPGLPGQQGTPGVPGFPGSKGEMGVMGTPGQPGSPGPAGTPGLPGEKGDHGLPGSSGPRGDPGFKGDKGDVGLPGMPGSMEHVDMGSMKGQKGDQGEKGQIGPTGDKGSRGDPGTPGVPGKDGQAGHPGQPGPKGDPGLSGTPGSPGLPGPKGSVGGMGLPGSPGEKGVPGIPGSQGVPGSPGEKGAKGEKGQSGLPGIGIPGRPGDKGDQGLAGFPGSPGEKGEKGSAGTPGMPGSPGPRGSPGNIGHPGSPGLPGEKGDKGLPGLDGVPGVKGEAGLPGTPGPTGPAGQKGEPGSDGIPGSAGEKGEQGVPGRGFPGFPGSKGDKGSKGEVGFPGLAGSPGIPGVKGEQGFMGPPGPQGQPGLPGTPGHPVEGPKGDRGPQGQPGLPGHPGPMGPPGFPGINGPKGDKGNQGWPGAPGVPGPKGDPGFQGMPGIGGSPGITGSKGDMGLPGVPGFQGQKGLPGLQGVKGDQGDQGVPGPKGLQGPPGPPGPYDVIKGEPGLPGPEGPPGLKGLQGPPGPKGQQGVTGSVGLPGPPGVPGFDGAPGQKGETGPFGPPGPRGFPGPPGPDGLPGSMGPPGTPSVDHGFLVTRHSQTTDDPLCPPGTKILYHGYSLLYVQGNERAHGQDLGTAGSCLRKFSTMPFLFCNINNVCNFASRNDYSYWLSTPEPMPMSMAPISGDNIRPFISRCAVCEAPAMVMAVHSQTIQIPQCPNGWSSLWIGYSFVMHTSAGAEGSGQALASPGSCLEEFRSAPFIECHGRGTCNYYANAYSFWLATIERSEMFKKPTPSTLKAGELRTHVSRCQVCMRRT
Chain of collagen type IV (collagen IV coated 96 well-plates, Corning) (P08122 184-1707, chain 2 of 2, further chain): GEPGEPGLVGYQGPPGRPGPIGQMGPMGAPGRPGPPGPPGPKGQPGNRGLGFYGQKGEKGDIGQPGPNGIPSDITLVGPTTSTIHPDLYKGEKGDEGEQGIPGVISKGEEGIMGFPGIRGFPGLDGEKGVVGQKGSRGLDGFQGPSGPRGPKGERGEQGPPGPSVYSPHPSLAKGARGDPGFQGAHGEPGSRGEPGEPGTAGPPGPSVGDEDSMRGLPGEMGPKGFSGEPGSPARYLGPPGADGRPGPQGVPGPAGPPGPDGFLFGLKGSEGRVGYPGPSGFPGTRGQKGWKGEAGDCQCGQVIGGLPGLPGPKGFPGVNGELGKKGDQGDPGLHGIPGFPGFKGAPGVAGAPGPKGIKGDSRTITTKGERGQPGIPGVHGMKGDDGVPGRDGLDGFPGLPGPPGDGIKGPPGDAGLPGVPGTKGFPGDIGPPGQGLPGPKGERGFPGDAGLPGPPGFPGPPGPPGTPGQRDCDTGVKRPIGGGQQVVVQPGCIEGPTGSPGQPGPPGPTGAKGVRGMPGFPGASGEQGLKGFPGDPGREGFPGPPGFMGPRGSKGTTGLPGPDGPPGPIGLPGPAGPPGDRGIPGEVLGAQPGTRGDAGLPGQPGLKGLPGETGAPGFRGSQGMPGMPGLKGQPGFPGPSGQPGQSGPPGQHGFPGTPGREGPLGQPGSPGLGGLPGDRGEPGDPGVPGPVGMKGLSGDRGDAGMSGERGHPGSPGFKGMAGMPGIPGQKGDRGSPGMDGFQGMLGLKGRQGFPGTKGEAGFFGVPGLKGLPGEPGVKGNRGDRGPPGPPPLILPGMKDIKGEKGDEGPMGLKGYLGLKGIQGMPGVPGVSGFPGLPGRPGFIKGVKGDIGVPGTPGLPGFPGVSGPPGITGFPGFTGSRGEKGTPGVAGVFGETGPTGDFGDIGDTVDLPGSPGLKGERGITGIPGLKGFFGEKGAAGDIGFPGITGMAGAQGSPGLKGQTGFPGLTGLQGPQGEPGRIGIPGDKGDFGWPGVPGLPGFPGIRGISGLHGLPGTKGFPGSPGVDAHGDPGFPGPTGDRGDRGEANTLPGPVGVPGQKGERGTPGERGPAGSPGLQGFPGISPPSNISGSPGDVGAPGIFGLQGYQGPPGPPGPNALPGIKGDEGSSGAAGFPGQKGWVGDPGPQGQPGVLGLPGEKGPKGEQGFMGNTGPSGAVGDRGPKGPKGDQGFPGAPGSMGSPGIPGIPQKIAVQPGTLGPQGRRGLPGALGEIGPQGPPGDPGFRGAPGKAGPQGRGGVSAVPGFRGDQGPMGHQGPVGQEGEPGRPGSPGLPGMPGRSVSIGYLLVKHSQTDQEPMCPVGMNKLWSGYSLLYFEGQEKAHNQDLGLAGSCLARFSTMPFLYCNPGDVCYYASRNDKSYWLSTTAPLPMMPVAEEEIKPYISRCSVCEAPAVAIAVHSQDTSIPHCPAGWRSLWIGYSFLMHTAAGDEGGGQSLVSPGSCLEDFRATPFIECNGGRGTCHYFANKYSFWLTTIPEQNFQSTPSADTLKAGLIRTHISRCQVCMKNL

B1: ColG s3a/s3b-Gluc (bacterial collagenase ColG domains s3a/s3b fused to Gaussia luciferase, His-tagged) (other)
chain: PITKEMEPNDDIKEANGPIVEGVTVKGDLNGSDDADTFYFDVKEDGDVTIELPYSGSSNFTWLVYKEGDDQNHIASGIDKNNSKVGTFKSTKGRHYVFIYKHDSASNISYSLNIKGLGNEKLKEKENNDSSDKATVIPNFNTTMQGSLLGDDSRDYYSFEVKEEGEVNIELDKKDEFGVTWTLHPESNINDRITYGQVDGNKVSNKVKLRPGKYYLLVYKYSGSGNYELRVNGGGSGGGSGGGSKPTENNEDFNIVAVASNFATTDLDADRGKLPGKKLPLEVLKEMEANARKAGCTRGCLICLSHIKCTPKMKKFIPGRCHTYEGDKESAQGGIGEAIVDIPEIPGFKDLEPMEQFIAQVDLCVDCTTGCLKGLANVQCSDLLKKWLPQRCATFASKIQGQVDKIKGAGGDGGGSHHHHHH
notes: Expressed in HEK293 cells, 46.1 kDa; also called ColG-Gluc; ColG s3s/s3b-Gluc
Binder B1 has a Kd [1] of 139 nM.

B2: extracellular domain of His-tagged murine LAIR-1 (receptor)
chain: QEGSLPDITIFPNSSLMISQGTFVTVVCSYSDKHDLYNMVRLEKDGSTFMEKSTEPYKTEDEFEIGPVNETITGHYSCIYSKGITWSERSKTLELKVIKENVIQTPAPGPTSDTSWLKTYSIYHHHHHH
notes: The entry includes the C-terminal His tag; Expressed in HEK293 cells; also called mLAIR1-His; mLAIR1
With B2 the binding result [2] was “no binding”, the “IC50 (read off the curve)” value [3] was roughly 300 nM and the “EC50 (read off the curve)” value [4] was roughly 20 nM.

B3: LAIR30.2.K1.B displayed on yeast (Aga2 fusion with c-myc tag) (receptor)
chain: QEGSLPDITIFPNSSLVISQGTFVTVVCSYSDKHDLYNMVRLEKDGSTFMEKSTAPYKTEDEFEIGPVNETITGHYSCIYSKGITWSERSKTLELKVIKENVIQTPAPGPTSDTLWLKTYSIY
notes: not shown: Aga2 protein of yeast, display anchor of the pCTCON2 vector; c-myc tag after the LAIR gene
B3 gave a koff [5] of 4.17e-06 s⁻¹.

B4: Lumican-Gluc (His-tagged murine lumican fused to Gaussia luciferase) (other)
chain: QYYDYDIPLFMYGQISPNCAPECNCPHSYPTAMYCDDLKLKSVPMVPPGIKYLYLRNNQIDHIDEKAFENVTDLQWLILDHNLLENSKIKGKVFSKLKQLKKLHINYNNLTESVGPLPKSLQDLQLTNNKISKLGSFDGLVNLTFIYLQHNQLKEDAVSASLKGLKSLEYLDLSFNQMSKLPAGLPTSLLTLYLDNNKISNIPDEYFKRFTGLQYLRLSHNELADSGVPGNSFNISSLLELDLSYNKLKSIPTVNENLENYYLEVNELEKFDVKSFCKILGPLSYSKIKHLRLDGNPLTQSSLPPDMYECLRVANEITVNGGGSGGGSGGGSKPTENNEDFNIVAVASNFATTDLDADRGKLPGKKLPLEVLKEMEANARKAGCTRGCLICLSHIKCTPKMKKFIPGRCHTYEGDKESAQGGIGEAIVDIPEIPGFKDLEPMEQFIAQVDLCVDCTTGCLKGLANVQCSDLLKKWLPQRCATFASKIQGQVDKIKGAGGDGGGSHHHHHH
notes: Expressed in HEK293 cells, 56.6 kDa; also called Lum GLuc
For B4, the Kd [6] was 600 nM, the Kd [1] was 130 nM and the “EC50 (read off the curve)” value [7] was roughly 60 nM. For the same binder, the “EC50 (read off the curve)” value [8] was roughly 60 nM.

B5: His-tagged biotinylated lumican (other)
chain: QYYDYDIPLFMYGQISPNCAPECNCPHSYPTAMYCDDLKLKSVPMVPPGIKYLYLRNNQIDHIDEKAFENVTDLQWLILDHNLLENSKIKGKVFSKLKQLKKLHINYNNLTESVGPLPKSLQDLQLTNNKISKLGSFDGLVNLTFIYLQHNQLKEDAVSASLKGLKSLEYLDLSFNQMSKLPAGLPTSLLTLYLDNNKISNIPDEYFKRFTGLQYLRLSHNELADSGVPGNSFNISSLLELDLSYNKLKSIPTVNENLENYYLEVNELEKFDVKSFCKILGPLSYSKIKHLRLDGNPLTQSSLPPDMYECLRVANEITVNGGGSHHHHHH
modifications: biotinylated (site not stated)
notes: also called Lwt-His-b; Lwt-HIS-b
B5 was tested, and the binding result [2] was “no binding” and the “EC50 (read off the curve)” value [4] was roughly 20 nM.

B6: lumican (purified His-tagged murine lumican, not biotinylated) (other)
chain: QYYDYDIPLFMYGQISPNCAPECNCPHSYPTAMYCDDLKLKSVPMVPPGIKYLYLRNNQIDHIDEKAFENVTDLQWLILDHNLLENSKIKGKVFSKLKQLKKLHINYNNLTESVGPLPKSLQDLQLTNNKISKLGSFDGLVNLTFIYLQHNQLKEDAVSASLKGLKSLEYLDLSFNQMSKLPAGLPTSLLTLYLDNNKISNIPDEYFKRFTGLQYLRLSHNELADSGVPGNSFNISSLLELDLSYNKLKSIPTVNENLENYYLEVNELEKFDVKSFCKILGPLSYSKIKHLRLDGNPLTQSSLPPDMYECLRVANEITVNGGGSHHHHHH
notes: also called Lwt
With B6 the “fold reduction of binding affinity if lumican was not warmed to 37° C. prior to measurement” value [9] was roughly 50 fold.

From patent US20230174623A1 (MIT, published 2023)
